Measurements taken from paper PMC11392263.

Biological target: purified 206 kDa rFn (recombinant fibronectin) (UniProt P02751)
Experiment: SPR; Biacore T200, 25°C; rFn immobilised on CM5 chip at 8000 RU; rRlpA (0.016-0.500 μM) injected at 30 μl/min in 10 mM Hepes pH 7.4, 150 mM NaCl, 3 mM EDTA, 0.05% P20; 1:1 Langmuir model

Chain of purified 206 kDa rFn (recombinant fibronectin) (P02751 32-2477): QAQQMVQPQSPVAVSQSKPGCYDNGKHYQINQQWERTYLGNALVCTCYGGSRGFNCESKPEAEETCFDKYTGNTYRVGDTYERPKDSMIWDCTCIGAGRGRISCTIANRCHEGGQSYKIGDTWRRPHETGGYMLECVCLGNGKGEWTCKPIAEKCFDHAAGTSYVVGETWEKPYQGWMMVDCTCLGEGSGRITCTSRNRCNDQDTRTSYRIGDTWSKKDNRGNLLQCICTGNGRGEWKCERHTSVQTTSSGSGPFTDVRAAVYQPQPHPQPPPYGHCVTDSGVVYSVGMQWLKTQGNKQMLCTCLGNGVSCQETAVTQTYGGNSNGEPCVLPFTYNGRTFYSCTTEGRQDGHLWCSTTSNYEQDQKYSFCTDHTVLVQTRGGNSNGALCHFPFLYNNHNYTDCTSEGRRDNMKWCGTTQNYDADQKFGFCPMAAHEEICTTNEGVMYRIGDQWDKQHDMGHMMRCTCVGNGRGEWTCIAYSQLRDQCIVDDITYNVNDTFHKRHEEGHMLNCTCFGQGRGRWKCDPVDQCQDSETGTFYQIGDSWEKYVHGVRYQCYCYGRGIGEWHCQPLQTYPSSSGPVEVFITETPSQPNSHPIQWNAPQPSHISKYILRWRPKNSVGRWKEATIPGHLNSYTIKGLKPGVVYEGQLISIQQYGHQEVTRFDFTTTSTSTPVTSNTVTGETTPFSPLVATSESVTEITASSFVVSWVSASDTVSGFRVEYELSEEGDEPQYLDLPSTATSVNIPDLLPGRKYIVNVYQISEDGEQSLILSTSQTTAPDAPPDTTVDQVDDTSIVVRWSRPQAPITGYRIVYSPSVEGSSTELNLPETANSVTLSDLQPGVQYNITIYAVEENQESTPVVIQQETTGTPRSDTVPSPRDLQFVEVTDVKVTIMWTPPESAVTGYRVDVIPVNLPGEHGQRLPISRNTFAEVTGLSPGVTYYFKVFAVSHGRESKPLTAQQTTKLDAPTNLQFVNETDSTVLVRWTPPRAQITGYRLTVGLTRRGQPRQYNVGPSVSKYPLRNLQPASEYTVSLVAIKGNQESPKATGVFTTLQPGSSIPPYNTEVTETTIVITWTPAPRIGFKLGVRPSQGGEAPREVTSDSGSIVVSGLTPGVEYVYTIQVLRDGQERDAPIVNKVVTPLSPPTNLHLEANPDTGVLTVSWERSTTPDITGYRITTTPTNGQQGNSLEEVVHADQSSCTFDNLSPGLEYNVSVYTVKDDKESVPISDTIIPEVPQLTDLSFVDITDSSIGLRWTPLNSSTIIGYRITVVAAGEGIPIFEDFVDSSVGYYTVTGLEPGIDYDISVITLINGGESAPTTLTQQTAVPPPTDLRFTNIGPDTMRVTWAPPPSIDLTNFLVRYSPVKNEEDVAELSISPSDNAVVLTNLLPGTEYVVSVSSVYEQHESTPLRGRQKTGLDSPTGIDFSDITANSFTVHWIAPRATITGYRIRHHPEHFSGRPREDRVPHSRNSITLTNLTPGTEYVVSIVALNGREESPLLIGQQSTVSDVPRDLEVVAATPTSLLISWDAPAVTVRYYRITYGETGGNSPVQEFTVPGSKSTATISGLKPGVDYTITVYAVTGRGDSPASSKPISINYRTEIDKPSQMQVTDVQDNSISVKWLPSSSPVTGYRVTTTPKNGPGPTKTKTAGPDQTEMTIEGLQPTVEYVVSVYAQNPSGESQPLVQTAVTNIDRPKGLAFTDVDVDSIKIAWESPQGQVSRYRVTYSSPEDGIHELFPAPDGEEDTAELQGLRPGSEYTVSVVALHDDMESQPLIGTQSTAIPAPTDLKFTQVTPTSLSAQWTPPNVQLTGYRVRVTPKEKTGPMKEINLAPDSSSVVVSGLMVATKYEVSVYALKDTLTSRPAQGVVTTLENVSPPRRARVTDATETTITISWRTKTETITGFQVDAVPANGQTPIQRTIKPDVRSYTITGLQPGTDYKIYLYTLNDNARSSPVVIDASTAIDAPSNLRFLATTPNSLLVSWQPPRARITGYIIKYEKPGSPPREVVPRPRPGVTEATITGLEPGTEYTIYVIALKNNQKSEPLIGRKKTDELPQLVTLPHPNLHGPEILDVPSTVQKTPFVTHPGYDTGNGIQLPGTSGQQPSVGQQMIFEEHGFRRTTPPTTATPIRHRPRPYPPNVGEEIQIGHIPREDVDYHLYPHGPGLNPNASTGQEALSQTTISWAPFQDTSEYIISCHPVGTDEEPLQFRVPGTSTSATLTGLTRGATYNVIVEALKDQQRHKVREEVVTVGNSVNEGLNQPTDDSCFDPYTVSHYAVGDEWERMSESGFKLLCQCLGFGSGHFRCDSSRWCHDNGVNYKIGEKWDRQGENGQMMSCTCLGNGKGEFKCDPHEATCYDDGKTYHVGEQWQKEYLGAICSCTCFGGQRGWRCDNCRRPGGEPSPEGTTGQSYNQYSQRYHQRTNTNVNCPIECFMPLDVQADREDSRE

GST-tagged RlpA recombinant protein (rare lipoprotein A of Glaesserella parasuis serotype 4) (natural protein; other documents disagree on this pair)
Kd: 1.6 nM
